For test [1], the target named is T1, engineered epitope 1, 58-mer of MUC16 non-shed domain, glycosylated (N-glycosylated (expressed in mammalian cells, used in glycosylated form); biotinylated for the Octet assay).
T1 peptide: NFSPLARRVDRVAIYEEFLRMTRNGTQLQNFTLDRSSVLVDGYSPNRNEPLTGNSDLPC
The experiment in a line: hybridoma ELISA screen / dose-response (FIG. 8). For orientation: An ELISA detects its analyte on a solid surface through an enzyme-linked reagent.

Test [2] concerns the target T2, engineered epitope 2, 29-mer of MUC16 non-shed domain, aglycosylated (aglycosylated (produced synthetically); biotinylated for the Octet assay).
T2 peptide: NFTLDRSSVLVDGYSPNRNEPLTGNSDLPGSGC
The experiment in a line: binding graphs of FIG. 10 (presumably BLI as for FIG. 5A).

The target of test [3] is T3, 230-mer MUC16 shed domain (UniProt Q8WXI7 14164-14393, biotinylated for the Octet assay).
T3 construct: domain: 230-mer MUC16 shed domain
T3 sequence: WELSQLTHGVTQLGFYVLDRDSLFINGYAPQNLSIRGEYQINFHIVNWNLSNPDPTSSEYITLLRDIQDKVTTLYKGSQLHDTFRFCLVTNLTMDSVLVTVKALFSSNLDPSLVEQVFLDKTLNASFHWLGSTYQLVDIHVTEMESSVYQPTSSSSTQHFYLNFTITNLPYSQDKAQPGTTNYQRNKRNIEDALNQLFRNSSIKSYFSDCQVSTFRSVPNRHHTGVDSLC
Described as above.

Test [4] addresses T4, MUC16 on OVCAR-3 (MUC16high) and SKOV-3 (MUC16low) ovarian cancer cells (UniProt Q8WXI7 1-14507, limits assumed).
T4 construct: whole, on cells; also called MUC16high cells; MUC16low cells
The experiment in a line: cell binding on OVCAR3 cells (FIG. 9A).

The target of test [5] is T5, engineered epitope 2, 29-mer of MUC16 non-shed domain, aglycosylated (aglycosylated (produced synthetically); biotinylated for the Octet assay).
T5 peptide: T2 peptide
The experiment in a line: ELISA; table columns appear swapped relative to plotted curves.

Test [6] addresses T6, engineered epitope 1, 58-mer of MUC16 non-shed domain, glycosylated (N-glycosylated (expressed in mammalian cells, used in glycosylated form); biotinylated for the Octet assay).
T6 peptide: T1 peptide
The description is as above.

In test [7] the target is T5, engineered epitope 2, 29-mer of MUC16 …. The experiment in a line: ELISA.
Test [8] deals with T6, engineered epitope 1, 58-mer of MUC16 …. The experiment in a line: ELISA.
Test [9] deals with T2, engineered epitope 2, 29-mer of MUC16 …. The experiment in a line: ELISA dose-response (FIG. 3).
Test [10] deals with T1, engineered epitope 1, 58-mer of MUC16 …. The experiment in a line: ELISA dose-response (FIG. 3).
Test [11] deals with T3, 230-mer MUC16 shed domain. The experiment in a line: BLI (Octet), biotinylated 230-mer shed domain on streptavidin biosensor, increasing concentrations of purified antibody. As to the method: Methods: Biotinylated 29-mer engineered epitope, glycosylated 58-mer engineered epitope, 230-mer MUC16 shed domain and 288-mer MUC16 extra-cellular domain were immobilized on a Pall Octet 384-Red streptavidin biosensor. Immobilized biosensor tips were dipped into increasing concentration of purified antibody with a 4 minute association followed by a 3 minute dissociation.
On the technique in general: In BLI a coated tip is dipped into the sample, and binding shifts an interference pattern.

The target in test [12] is T4, MUC16 on OVCAR-3 (MUC16high) and SKOV-3 …. The experiment in a line: flow cytometry, hybridoma supernatant on OVCAR-3 or SKOV-3 cells (FIG. 5B). As to the method:
Methods: Hybridoma supernatants were diluted 1:2 into FACS buffer containing OVCAR-3 or SKOV-3 cells and incubated for 30 minutes, then washed once with FACS buffer. 2 ug/mL APC labeled goat anti-mouse Fc secondary antibody diluted in FACS buffer was added to the cells and incubated for 20 minutes, then washed once with FACS buffer. Flow cytometry was performed with 20,000 cells per sample.
(A flow cytometer gives signals particle by particle.)

For test [13] the target is unchanged. The experiment in a line: flow cytometry on MUC16high and MUC16low cells (FIG. 7B).
The target of test [14] is T2, engineered epitope 2, 29-mer of MUC16 …. The experiment in a line: ELISA dose-response (FIG. 6).
Test [15] has as its target T1, engineered epitope 1, 58-mer of MUC16 …. The experiment in a line: ELISA dose-response (FIG. 6).
Test [16] addresses T3, 230-mer MUC16 shed domain. The experiment in a line: binding graphs of FIG. 7A (presumably BLI as for FIG. 5A).
The target of test [17] is T5, engineered epitope 2, 29-mer of MUC16 …. The experiment in a line: ELISA.
The target of test [18] is T6, engineered epitope 1, 58-mer of MUC16 …. The experiment in a line: ELISA.

In general, EC50 refers to the concentration that produces a half-maximal response. Low values mean an effect from little substance, high ones a need for much substance.

B1: 21G6 anti-MUC16 clone (antibody, V domains shown)
VH: EVQLEESGPGLVKPSQSLSLTCTVTGYSITSDYAWNWIRQFPGNKLEWMGYISYSGSTIYNPSLKSRISITRDTSKNQFFLHLNSVTTEDTATYYCATLGLDYWGQGTTLTVSS
VL: DFVMTQSPSSLAVSVGEKVTMSCKSSQSLLYSSNQKNYLAWYQQKPGQSPKLLIYWASTRGSGVPDRFTGSGSGTDFTLTISSVKAEDLAVYYCQQYHSYRTFGGGTKLEIK
notes: Hybridoma antibody from immunized Balb/c mice; also called clone 21G6
B1: the binding result in test [1] is reported as “binds”; in [2], “binds”; in test [3] it was “no binding”; in test [4], “binds”. In addition, the EC50 is 3.4 nM in test [5] and 0.68 nM in [6].

B2: 1D7 anti-MUC16 clone (antibody, V domains shown)
VH: EVMLVESGGGLVKPGGSLKLSCVASGFTFSSFAMSWVRQTPEKRLEWVAIISSGGGYIYYADSMTGRFTISRDNAKNTLYLQMSSLRSEDTAMYYCARLGGDYDEFYAKDYWGQGTSVTVSS
VL: DIQMTQSSSSFSVSLGDRVTITCKASEDIYNRLAWYQQKPGNAPRLLISGATSLETGVPSRFSGSGSGKDYTLSITSLQTEDVATYYCQQYWSTWTFGGGTKLEIK
notes: Hybridoma antibody from immunized Balb/c mice; Used as purified antibody in BLI and as hybridoma supernatant in flow cytometry; also called clone 1D7
As to B2, the EC50 in test [7] is 0.56 nM; in [8], 0.51 nM. For the same molecule, the binding result in [9] is given as “binds”; in test [10], “binds”; in [11] it was “no binding”; in test [12], “binds”.

B3: 8G4 anti-MUC16 clone (antibody, V domains shown)
VH: QIQLVQSGPELKMPGETVKISCKASGYTFTNFGMNWVKQAPGKALKWMGWINTNTGKPTYFEEFKGRFAFSLETSASTAYLQINNLKNEDTATYFCARRWDRSAWFAYWGQGTLVTVSA
VL: QAVVTQESALTTSPGETVTLTCRSSTGAVTTSNYANWVQEKPDHLFTGLIGGTNDRSPGVPARFSGSLIGDKAALTITGAQTEDEAIYFCALWYSNHWVFGGGTKLTVL
notes: Hybridoma antibody from immunized Balb/c mice; also called clone 8G4
For B3, the binding result in test [13] is reported as “binds”; in test [14] it was “binds”; in [15], “binds”; in test [16] it was “no binding”. Moreover, the EC50 in [17] turned out to be 0.23 nM; in [18], 0.19 nM.

For the origin of these results see patent US20240262929A1 (IBIO, published 2024).
